Tests used:
interleukin 6 (IL-6) [1] = target: interleukin 6 (IL-6) (UniProt P05231); assay: IL-6 binding ELISA; 40±2°C, 3 months
interleukin 6 (IL-6) [2] = target: interleukin 6 (IL-6) (UniProt P05231); assay: IL-6 binding ELISA; 5±3°C, 6 months
interleukin 6 (IL-6) [3] = target: interleukin 6 (IL-6) (UniProt P05231); assay: IL-6 binding ELISA; 25±2°C, 1 month
interleukin 6 (IL-6) [4] = target: interleukin 6 (IL-6) (UniProt P05231); assay: IL-6 binding ELISA, relative to a Phase I DS lot; 120 mg/mL formulation without methionine, T0 (frozen aliquot)
interleukin 6 (IL-6) [5] = target: interleukin 6 (IL-6) (UniProt P05231); assay: IL-6 binding ELISA; 40±2°C, 1 month
interleukin 6 (IL-6) [6] = target: interleukin 6 (IL-6) (UniProt P05231); assay: IL-6 binding ELISA; 25±2°C, 3 months
interleukin 6 (IL-6) [7] = target: interleukin 6 (IL-6) (UniProt P05231); assay: IL-6 binding ELISA; 25±2°C, 1 month; remark: listed apart in the source
interleukin 6 (IL-6) [8] = target: interleukin 6 (IL-6) (UniProt P05231); assay: IL-6 binding ELISA; 5±3°C, 1 month
interleukin 6 (IL-6) [9] = target: interleukin 6 (IL-6) (UniProt P05231); assay: IL-6 binding ELISA; 25±2°C, 0 months
interleukin 6 (IL-6) [10] = target: interleukin 6 (IL-6) (UniProt P05231); assay: IL-6 binding ELISA; 5±3°C, 0 months
interleukin 6 (IL-6) [11] = target: interleukin 6 (IL-6) (UniProt P05231); assay: IL-6 binding ELISA; 40±2°C, 3 months; remark: listed apart in the source
interleukin 6 (IL-6) [12] = target: interleukin 6 (IL-6) (UniProt P05231); assay: IL-6 binding ELISA, relative to a Phase I DS lot; 50 mg/mL formulation without methionine, T0 (frozen aliquot)
interleukin 6 (IL-6) [13] = target: interleukin 6 (IL-6) (UniProt P05231); assay: IL-6 binding ELISA; 40±2°C, 1 month; remark: listed apart in the source
interleukin 6 (IL-6) [14] = target: interleukin 6 (IL-6) (UniProt P05231); assay: IL-6 binding ELISA; 25±2°C, 3 months; remark: listed apart in the source
interleukin 6 (IL-6) [15] = target: interleukin 6 (IL-6) (UniProt P05231); assay: IL-6 binding ELISA; 25±2°C, 0 months; remark: listed apart in the source
interleukin 6 (IL-6) [16] = target: interleukin 6 (IL-6) (UniProt P05231); assay: IL-6 binding ELISA; 5±3°C, 6 months; remark: listed apart in the source
interleukin 6 (IL-6) [17] = target: interleukin 6 (IL-6) (UniProt P05231); assay: IL-6 binding ELISA, relative to a Phase I DS lot; 20 mg/mL formulation without methionine, 12 months at 2 to 8°C
interleukin 6 (IL-6) [18] = target: interleukin 6 (IL-6) (UniProt P05231); assay: IL-6 binding ELISA; 25±2°C, 12 months
interleukin 6 (IL-6) [19] = target: interleukin 6 (IL-6) (UniProt P05231); assay: IL-6 binding ELISA; 25±2°C, 6 months
interleukin 6 (IL-6) [20] = target: interleukin 6 (IL-6) (UniProt P05231); assay: IL-6 binding ELISA; 5±3°C, 0 months; remark: listed apart in the source
interleukin 6 (IL-6) [21] = target: interleukin 6 (IL-6) (UniProt P05231); assay: IL-6 binding ELISA; 5±3°C, 6 months; remark: listed apart in the source
interleukin 6 (IL-6) [22] = target: interleukin 6 (IL-6) (UniProt P05231); assay: IL-6 binding ELISA; 40±2°C, 0 months
interleukin 6 (IL-6) [23] = target: interleukin 6 (IL-6) (UniProt P05231); assay: IL-6 binding ELISA; 25±2°C, 1 month; remark: listed apart in the source
interleukin 6 (IL-6) [24] = target: interleukin 6 (IL-6) (UniProt P05231); assay: IL-6 binding ELISA; 40±2°C, 1 month; remark: listed apart in the source
interleukin 6 (IL-6) [25] = target: interleukin 6 (IL-6) (UniProt P05231); assay: IL-6 binding ELISA, relative to a Phase I DS lot; 50 mg/mL formulation without methionine, 12 months at 2 to 8°C
interleukin 6 (IL-6) [26] = target: interleukin 6 (IL-6) (UniProt P05231); assay: IL-6 binding ELISA; 5±3°C, 3 months
interleukin 6 (IL-6) [27] = target: interleukin 6 (IL-6) (UniProt P05231); assay: IL-6 binding ELISA; 5±3°C, 12 months
interleukin 6 (IL-6) [28] = target: interleukin 6 (IL-6) (UniProt P05231); assay: IL-6 binding ELISA; 25±2°C, 6 months; remark: listed apart in the source
interleukin 6 (IL-6) [29] = target: interleukin 6 (IL-6) (UniProt P05231); assay: IL-6 binding ELISA; 5±3°C, 3 months; remark: listed apart in the source
interleukin 6 (IL-6) [30] = target: interleukin 6 (IL-6) (UniProt P05231); assay: IL-6 binding ELISA; 25±2°C, 1 month; remark: listed apart in the source
interleukin 6 (IL-6) [31] = target: interleukin 6 (IL-6) (UniProt P05231); assay: IL-6 binding ELISA; 25±2°C, 0 months; remark: listed apart in the source

Sequence of UniProt P05231 (P05231 30-212 limits assumed): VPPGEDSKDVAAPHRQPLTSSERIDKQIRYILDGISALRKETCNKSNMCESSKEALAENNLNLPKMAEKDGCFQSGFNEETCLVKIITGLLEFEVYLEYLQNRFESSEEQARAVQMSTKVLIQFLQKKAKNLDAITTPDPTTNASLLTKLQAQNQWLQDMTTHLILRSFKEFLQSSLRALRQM

B1: COR-001 antibody (antibody, human IgG1, kappa, V domains shown)
VH: EVQLVESGGGLVQPGGSLRLSCAASGFTISSNYMIWVRQAPGKGLEWVSDLYYYAGDTYYADSVKGRFTMSRDISKNTVYLQMNSLRAEDTAVYYCARWADDHPPWIDLWGRGTLVTVSS
VL: DIQMTQSPSTLSASVGDRVTITCRASQGISSWLAWYQQKPGKAPKVLIYKASTLESGVPSRFSGSGSGTEFTLTISSLQPDDFATYYCQQSWLGGSFGQGTKLEIKR
Interleukin 6 (IL-6) [1]
  IL-6 binding ELISA (% of Reference Standard): 86%
Interleukin 6 (IL-6) [2]
  IL-6 binding ELISA (% of Reference Standard): 92%
Interleukin 6 (IL-6) [3]
  IL-6 binding ELISA (% of Reference Standard): 93%
Interleukin 6 (IL-6) [4]
  IL-6 binding ELISA (% of assay control): 91%
Interleukin 6 (IL-6) [5]
  IL-6 binding ELISA (% of Reference Standard): 92%
Interleukin 6 (IL-6) [6]
  IL-6 binding ELISA (% of Reference Standard): 90%
Interleukin 6 (IL-6) [7]
  IL-6 binding ELISA (% of Reference Standard): 98%
Interleukin 6 (IL-6) [8]
  IL-6 binding ELISA (% of Reference Standard): 98%
Interleukin 6 (IL-6) [9]
  IL-6 binding ELISA (% of Reference Standard): 96%
Interleukin 6 (IL-6) [10]
  IL-6 binding ELISA (% of Reference Standard): 91%
Interleukin 6 (IL-6) [11]
  IL-6 binding ELISA (% of Reference Standard): 94%
Interleukin 6 (IL-6) [12]
  IL-6 binding ELISA (% of assay control): 70%
Interleukin 6 (IL-6) [13]
  IL-6 binding ELISA (% of Reference Standard): 95%
Interleukin 6 (IL-6) [14]
  IL-6 binding ELISA (% of Reference Standard): 102%
Interleukin 6 (IL-6) [15]
  IL-6 binding ELISA (% of Reference Standard): 91%
Interleukin 6 (IL-6) [16]
  IL-6 binding ELISA (% of Reference Standard): 97%
Interleukin 6 (IL-6) [17]
  IL-6 binding ELISA (% of assay control): 84%
Interleukin 6 (IL-6) [18]
  IL-6 binding ELISA (% of Reference Standard): 95%
Interleukin 6 (IL-6) [19]
  IL-6 binding ELISA (% of Reference Standard): 82%
Interleukin 6 (IL-6) [20]
  IL-6 binding ELISA (% of Reference Standard): 94%
Interleukin 6 (IL-6) [21]
  IL-6 binding ELISA (% of Reference Standard): 95%
Interleukin 6 (IL-6) [22]
  IL-6 binding ELISA (% of Reference Standard): 94%
Interleukin 6 (IL-6) [23]
  IL-6 binding ELISA (% of Reference Standard): 110%
Interleukin 6 (IL-6) [24]
  IL-6 binding ELISA (% of Reference Standard): 85%
Interleukin 6 (IL-6) [25]
  IL-6 binding ELISA (% of assay control): 89%
Interleukin 6 (IL-6) [26]
  IL-6 binding ELISA (% of Reference Standard): 92%
Interleukin 6 (IL-6) [27]
  IL-6 binding ELISA (% of Reference Standard): 95%
Interleukin 6 (IL-6) [28]
  IL-6 binding ELISA (% of Reference Standard): 81%
Interleukin 6 (IL-6) [29]
  IL-6 binding ELISA (% of Reference Standard): 96%
Interleukin 6 (IL-6) [30]
  IL-6 binding ELISA (% of Reference Standard): 95%
Interleukin 6 (IL-6) [31]
  IL-6 binding ELISA (% of Reference Standard): 103%
